Experiment [1] relates to thrombin. As to the kind of experiment: Thrombin inhibition in the absence of glycosaminoglycan. In kind it is biochemical, human. Particulars: pH 7.4, mean ± S.D. The method, then: All assays were performed at room temperature in 96-well microtiter plates previously coated with 2 mg/mL BSA.
(§1) Residual thrombin activity was measured with 150 μM GlyProArg-NA and 1 mg/mL pB in the absence of glycosaminoglycan, 2 mg/mL pB in the presence of heparin and 4 mg/mL in the presence of dermatan sulfate. Residual factor Xa activity was measured with 500 μM Spectrozyme FXa and 2mg/mL pB in the presence or absence of glycosaminoglycan. Residual chymotrypsin activity was measured with 150 μM AlaAlaProPhe-NA and residual trypsin activity was measured with 150 μM GlyProArg-NA.
(§2) Assays were performed at least in triplicate on two or more recombinant protein preparations.

For the next experiment, the system named is chymotrypsin. As to the kind of experiment: Chymotrypsin inhibition in the absence of glycosaminoglycan. It counts as biochemical. The settings on record: pH 7.4, mean ± S.D. Here is the method: (§3) Protease inhibition rates were determined as described previously (Rogers, S. J., Pratt, C. W., Whinna, H. C., and Church, F. C. (1992) J. Biol. Chem. 267(6), 3613-3617; Whinna, H. C., Choi, H. U., Rosenberg, L. C., and Church, F. C. (1993) J. Biol. Chem. 268, 3920-3924; Ciaccia, A. V., Cunningham, E. L., and Church, F. C. (1995) Protein Express. Purific. 6, 806-812; Ciaccia, A. V., Willemze, A. J., and Church, F. C. (1997) J. Biol. Chem. 272(2), 888-893). All assays were performed at room temperature in 96-well microtiter plates previously coated with 2 mg/mL BSA.
In the absence of glycosaminoglycan, 50-100 nM rHCII (wt, CHis6, CHis5 Pro, L444R, or L444R-CHis6) or rATIII (wt or CHis6) was incubated with 1 nM thrombin, 0.5 nM Factor Xa, 2 nM chymotrypsin, or 5 nM trypsin, in the presence of 1 mg/mL Polybrene (pB) (for thrombin and Factor Xa) and 2 mg/mL BSA in HNPN, pH 7.4.
(§4) Residual thrombin activity was measured with 150 μM GlyProArg-NA and 1 mg/mL pB in the absence of glycosaminoglycan, 2 mg/mL pB in the presence of heparin and 4 mg/mL in the presence of dermatan sulfate. Residual factor Xa activity was measured with 500 μM Spectrozyme FXa and 2mg/mL pB in the presence or absence of glycosaminoglycan. Residual chymotrypsin activity was measured with 150 μM AlaAlaProPhe-NA and residual trypsin activity was measured with 150 μM GlyProArg-NA. Substrate cleavage was measured by color development at […] on a Vmax Kinetic Microplate Reader (Molecular Devices).
(§5) Assays were performed at least in triplicate on two or more recombinant protein preparations. All inhibition studies were measured under pseudo-first order conditions where inhibitor [I] is at least ten-fold higher than enzyme (protease) [E], and second-order rate constants were calculated as described previously (Ciaccia, A. V., Cunningham, E. L., and Church, F. C. (1995) Protein Express. Purific. 6, 806-812; Ciaccia, A. V., Willemze, A. J., and Church, F. C. (1997) J. Biol. Chem. 272(2), 888-893).

The target of experiment [2] is T1, plasma purified α-thrombin (Homo sapiens, UniProt P00734).
T1 construct: Human α-thrombin, HCII, and ATIII were purified in our laboratory from plasma; from tissue; host or cells: human plasma (purified in the authors' laboratory)
As to the kind of experiment: Thrombin inhibition in the presence of glycosaminoglycans (heparin or dermatan sulfate). In kind it is biochemical. Particulars: for maximal rate of thrombin inhibition in the presence of heparin: heparin at optimal concentration. The method, then: as §3
In the presence of glycosaminoglycans, 5 nM rHCII (wt, CHis6, CHis5 Pro, L444R, or L444R-CHis6) was incubated with 0.5 nM thrombin and 0-1 mg/mL heparin or 0-4 mg/mL dermatan sulfate or 10 nM rATIII (wt or CHis6) was incubated with 1 nM thrombin or factor Xa and 0-1 mg/mL heparin in the presence of 2 mg/mL BSA in HNPN, pH 7.4.
as §4, §5

Experiment [3] can be described thus: Heparin-Sepharose affinity chromatography. In kind it is binding. The settings on record: NaCl gradient, 20 mM Hepes pH 7.4. The method, then: 100 μL of each fraction was aliquoted onto a 96-well microtiter plate and ELISA was performed. The peak elution ionic strength was determined by plotting 405 nm color development and NaCl concentration against the fraction number. All samples were run at least in triplicate using two or more protein preparations. Recombinant ATIII samples were run similarly to the HCII samples, except the elution gradient was run from 50 mM to 2 M NaCl.

For the next experiment, the target named is T2, α-thrombin (Homo sapiens, UniProt P00734).
T2 construct: Human α-thrombin, HCII, and ATIII were purified in our laboratory from plasma; from tissue; host or cells: human plasma (purified in the authors' laboratory)
Nature of the experiment: Effect of hirugen on thrombin inhibition in the absence of glycosaminoglycan. Particulars: for rate constant of inhibition (k2) in the absence of peptide: no hirugen, no control peptide, FIG. 5. In kind it is biochemical. The method, then: as §1, §2

Experiment [4] concerns thrombin. As to the kind of experiment: Plasma-based thrombin inhibition assay. Particulars: 10 nM serpin. In kind it is biochemical, human. The method, then:
The assay to evaluate rHCII (wt and rHCII-CHis6) in plasma was designed based on previously published methods (Tollefsen, D. M., and Pestka, C. A. (1985) Blood 66(4), 769-774; Griffith, M. J., Carraway, T., White, G. C., and Dombrose, F. A. (1983) Blood 61(1), 111-118). All assays were performed at room temperature in 96-well microtiter plates previously coated with 2 mg/mL BSA. This assay was performed using normal hemostasis reference plasma (REF), human antithrombin III-deficient plasma (DEF), or a 50:50 mixture of these plasmas (REF/DEF). Within the assay, 10 nM rHCII or rHCII-CHis6 was incubated for 15 sec with I nM thrombin and 1 μg/mL heparin or 50 μg/mL dermatan sulfate, in the presence of a 1:100 dilution of plasma. Residual thrombin activity was measured with 300 μM GPA and 2 mg/mL pB. Substrate cleavage was measured by color development at […] on a Vmax Kinetic Microplate Reader. Second order rate constants were measured at least in triplicate on two recombinant protein preparations as described in Example 4.

In experiment [5] the test system is plasma-purified α-thrombin. Nature of the experiment: Thrombin inhibition with heparin before and after carboxypeptidase A digest. Particulars: 2 hr, room temperature, FIG. 3. It counts as biochemical, human. Here is the method: Forty ng of CPA was combined with approximately 1 μg of recombinant protein and incubated at room temperature. Following a 2-hr incubation at room temperature, 2 mM EDTA was added to quench CPA activity. Controls were run in which EDTA was added to the reaction prior to the addition of CPA. CPA digested proteins were then assayed according to previously mentioned procedures.

The test system of experiment [6] is thrombin. Particulars: cited from earlier work.
In experiment [7] the target is T1, plasma purified α-thrombin. Particulars: value printed with literature reference; cited from earlier work.
The mark [8] stands for this setting: hirugen 20 μM, absence of glycosaminoglycan.

Numbering of substitutions follows the chain as printed. In names and notes the source's numbering stands. Where two headings read alike, the source gives them in different places.

B1: wt-rHCII: Human wild type recombinant heparin cofactor II expressed in the baculovirus expression system (protein, UniProt P05546 20-499, looked up)
Heparin cofactor 2: GSKGPLDQLEKGGETAQSADPQWEQLNNKNLSMPLLPADFHKENTVTNDWIPEGEEDDDYLDLEKIFSEDDDYIDIVDSLSVSPTDSDVSAGNILQLFHGKSRIQRLNILNAKFAFNLYRVLKDQVNTFDNIFIAPVGISTAMGMISLGLKGETHEQVHSILHFKDFVNASSKYEITTIHNLFRKLTHRLFRRNFGYTLRSVNDLYIQKQFPILLDFKTKVREYYFAEAQIADFSDPAFISKTNNHIMKLTKGLIKDALENIDPATQMMILNCIYFKGSWVNKFPVEMTHNHNFRLNEREVVKVSMMQTKGNFLAANDQELDCDILQLEYVGGISMLIVVPHKMSGMKTLEAQLTPRVVERWQKSMTNRTREVLLPKFKLEKNYNLVESLKLMGIRMLFDKNGNMAGISDQRIAIDLFKHQGTITVNEEGTQATTVTTVGFMPLSTQVRFTVDRPFLFLIYEHRTSCLLFMGRVANPSRS
Turning to B1, the “k2 × 10^4 (M^-1 min^-1), thrombin” value in the experiment with thrombin [1] is listed as 1.30 ± .19 × 10^4 (M^-1 min^-1). The “k2 × 10^4 (M^-1 min^-1), chymotrypsin” value with chymotrypsin was 71.0 ± 12 × 10^4 (M^-1 min^-1). Besides, in experiment [2] (Thrombin + dermatan sulfate, unit not printed in table (text b157: μg/mL)), the “average dermatan sulfate concentration at which the maximal rate was measured (in parentheses), thrombin” value was found to be 500. For the same molecule, in experiment [2] (Thrombin + heparin, unit not printed in table (text b156: μg/mL)), the “average heparin concentration at which the maximal rate was measured (in parentheses), thrombin” value was 50. Further, the “dermatan sulfate concentration at maximal rate of thrombin inhibition” value in experiment [2] (dermatan sulfate) is on record as “approximately 500 μg/mL”. Also, in [2] (dermatan sulfate at optimal concentration), the “maximal rate of thrombin inhibition in the presence of dermatan sulfate” value was 1.52±0.31×10^9 M^-1 min^-1. The “heparin concentration at maximal rate of thrombin inhibition” value in experiment [2] (heparin) fell in the range of 50 to 100 µg/mL. In [2], the “maximal rate of thrombin inhibition in the presence of heparin” value is 9.29±2.8×10^8 M^-1 min^-1. For the same molecule, in [2] (maximal rate of dermatan sulfate curve, mean ± S.D.), the “Inhibition Rate k2 × 10^8 (M^-1 min^-1), Thrombin + dermatan sulfate” value was 15.2 ± 3.1 × 10^8 (M^-1 min^-1). For the same molecule, the “Inhibition Rate k2 × 10^8 (M^-1 min^-1), Thrombin + heparin” value in experiment [2] (maximal rate of heparin curve, mean ± S.D.) was 9.29 ± 2.8 × 10^8 (M^-1 min^-1). For the same molecule, the “Heparin-Sepharose [NaCl], peak elution concentration” value in experiment [3] is reported as 350 mM. Moreover, the “reduction of rate of thrombin inhibition by hirugen” value in the experiment with α-thrombin (setting [8]) is listed as above 50%. The “rate constant of inhibition (k2) in the absence of peptide” value with α-thrombin turned out to be 253 M⁻¹ s⁻¹. The “Inhibition Rate k2 × 10^8 (M^-1 min^-1), thrombin in plasma” value with thrombin [4] (Dermatan Sulfate (50 μg/mL), 50:50 Mixture (REF/DEF) plasma 1:100) was 5.8 ± .24 × 10^8 (M^-1 min^-1); with thrombin [4] (Dermatan Sulfate (50 μg/mL), ATIII Deficient (DEF) plasma 1:100), 6.5 ± .50 × 10^8 (M^-1 min^-1); in the experiment with thrombin [4] (Dermatan Sulfate (50 μg/mL), Normal Reference (REF) plasma 1:100) it was 5.7 ± .45 × 10^8 (M^-1 min^-1); in the experiment with thrombin [4] (Heparin (1 μg/mL), 50:50 Mixture (REF/DEF) plasma 1:100), 1.9 ± .050 × 10^8 (M^-1 min^-1); in the experiment on thrombin [4] (Heparin (1 μg/mL), ATIII Deficient (DEF) plasma 1:100), “.26 ± .050 × 10^8 (M^-1 min^-1)”; with thrombin [4] (Heparin (1 μg/mL), Normal Reference (REF) plasma 1:100), 22 ± .17 × 10^8 (M^-1 min^-1). In experiment [5], the “change of heparin-dependent thrombin inhibition after CPA digest, in words” value is on record as “do not drastically change”.

B2: rHCII-L444R: Recombinant HCII with mutation at the reactive site residue P1 (L444R) (protein, UniProt P05546 20-499, looked up, variant L444R)
Heparin cofactor 2: B1 Heparin cofactor 2 with L444R
For B2, in [2], the “maximal rate of thrombin inhibition in the presence of heparin” value is given as 1.93±0.38×10^8 M^-1 min^-1. Further, the “Heparin-Sepharose [NaCl], peak elution concentration” value in [3] came out at 350 mM. Besides, the “effect of hirugen on thrombin inhibition, in words” value in the experiment with α-thrombin (setting [8]) is on record as “less of an effect”. In the experiment with α-thrombin, the “rate constant of inhibition (k2) in the absence of peptide” value came to 31200 M⁻¹ s⁻¹. Besides, the “increase of the rate of thrombin inhibition compared to wt-rHCII” value in the experiment on thrombin [6] (absence of glycosaminoglycan, earlier publications) is listed as ~2 orders of magnitude. Besides, the “rate of thrombin inhibition in the absence of glycosaminoglycan” value in the experiment with thrombin [6] (value printed with literature reference) is 1.3±0.30×10^6 M^-1 min^-1. Besides, in experiment [7], the “maximal rate of thrombin inhibition in the presence of dermatan sulfate” value is 2.84±0.24×10^6 M^-1 min^-1.

The values above are taken from patent US6207419A, “Thrombin inhibitory agents and methods of using same” (The University of North Carolina at Chapel Hill, priority 1999, dated 2001).
